What was measured:
Type in all cases: in vivo
[1] = test system: experimental dry eye (EDE)-induced C57BL/6 mouse model; assay: Corneal fluorescent staining score in experimental dry eye mice; details: for corneal fluorescent staining score: total 0 to 16 points
Experimental: (§1) To induce experimental dry eye, 7- to 8-week-old C57BL/6 mice (purchased from Damool Science) were injected subcutaneously with scopolamine hydrochloride at 0.5 mg/0.2 ml three times a day under exposure to a ventilating device for 18 hours a day. The humidity was maintained at 30%, and the temperature was maintained at 25° C. The C57BL/6 mice were classified into 7 groups, depending on concentrations of the oral drug to be administered, as shown in Table 6.
(§2) After inducing experimental dry eye in the experimental mice, the drugs prepared in Example 3 were orally administered at 2 μL per dose once a day to the treatment groups (administered at 13:30 every day). In both eyes of all mice, at baseline, day 5, and day 10, tear volume and tear film break-up time were measured and corneal fluorescent staining score was examined. The mice were then sacrificed and tissue analysis was performed. Each group consisted of 6 animals.
1 μL of 1% fluorescent dye was instilled into the eyes of each mouse, followed by washing with saline. Subsequently, the cornea of each mouse was observed using a slit lamp microscope to score the degree of epithelial injury (the extent to which fluorescent staining occurred).

[2] = test system: experimental dry eye (EDE)-induced C57BL/6 mouse model; assay: Goblet cells in conjunctiva (PAS staining histology)
Experimental: as §1, §2
The eye and accessory tissues were excised from one eye of one animal in each group, fixed in 4% paraformaldehyde, embedded in paraffin, and then PAS staining was performed on two cross-sectional pieces of the tissue. In each piece, the density of goblet cells in the conjunctiva was calculated using a microscope and image analysis software.

[3] = test system: experimental dry eye (EDE)-induced C57BL/6 mouse model; assay: Inflammatory cytokines by Luminex multiplex immunobead assay
Experimental: as §1
(§3) In both eyes of all mice, at baseline, day 5, and day 10, tear volume and tear film break-up time were measured and corneal fluorescent staining score was examined. The mice were then sacrificed and tissue analysis was performed. Each group consisted of 6 animals.
Conjunctival tissue was excised and collected from 6 eyes of 3 animals in each group, and then immersed in lysis buffer containing protease inhibitors for 30 minutes. Subsequently, the resultant was centrifuged and stored −80° C. Then, the concentrations of IFN-γ, IL-1Bβand TNF-α in the cornea and conjunctiva were analyzed using the Luminex multiplex immunobead assay.

[4] = test system: experimental dry eye (EDE)-induced C57BL/6 mouse model; assay: CD4+IFN-γ+ T cells by flow cytometry
Experimental: as §1, §2
The cornea, conjunctiva, and lacrimal gland were excised, sectioned with scissors, and then shaken with 0.5 mg/mL of collagenase type D (manufactured by Roche Applied Science, Indianapolis, IN, USA) at 37° C. for 60 minutes. The tissue was ground and then allowed to pass through a cell strainer, followed by centrifugation. The number of CD4+IFN-γ+T cells was calculated by performing flow cytometry with fluorescein-conjugated anti-CD4 antibody and phycoerythrin-conjugated anti-IFN-γ antibody, and the number of DCF-DA cells was calculated using the CM-H2DCFDA kit (manufactured by Thermo Fisher Scientific, Waltham, MA, USA).

[5] = test system: experimental dry eye (EDE)-induced C57BL/6 mouse model; assay: Malondialdehyde (MDA) by ELISA in cornea, conjunctiva and lacrimal gland; details: for MDA efficacy as compared with 0.05% CsA: 10 mg/kg oral
Experimental: as §1, §2
The corneas, conjunctivas, and lacrimal glands were excised from both eyes (6 eyes) of 3 animals in each group required for tissue analysis. The samples were homogenized in PBS, and then the lysates were centrifuged at 10000×g for 10 minutes at 4° C. The supernatant was taken and the total amount of protein was measured using the Bradford assay. MDA was detected using an ELISA (Enzyme-linked immunosorbent assay) kit (manufactured by Quantikine, R&D Systems, Minneapolis, MN) containing capture and detection antibodies according to the manufacturer's manual. Using ELISA, MDA levels in the cornea, conjunctiva, and lacrimal gland were measured and recorded, respectively.

[6] = test system: experimental dry eye (EDE)-induced C57BL/6 mouse model; assay: Apoptosis (TUNEL immunofluorescent staining); details: for number of necrotic cells in the cornea: TUNEL staining
Experimental: as §1, §3
The eye and accessory tissues were excised from one eye of one animal in each group, fixed in 4% paraformaldehyde, embedded in paraffin, and then TUNEL staining was performed on two cross-sectional pieces of the tissue. […]

[7] = conjunctiva, 2.5 mg/kg oral once a day
[8] = conjunctiva, 5 mg/kg oral once a day
[9] = conjunctiva, 10 mg/kg oral once a day
[10] = cornea and conjunctiva, CsA and oral SodA2 groups
[11] = cornea, 2.5 mg/kg oral once a day
[12] = cornea, 5 mg/kg oral once a day
[13] = cornea, 10 mg/kg oral once a day

B1: SodA2: variant Mn-SOD of Bacillus amyloliquefaciens GF423 sodA, Asn73 and Asn136 replaced with Asp, SEQ ID NO: 4; given orally shellac-coated, mixed with dextrin (protein, listed as Bacillus amyloliquefaciens)
chain: MAYKLPELPYAYDALEPHIDKETMTIHHTKHHNTYVTNLNKAIEGSALAEKSVDELVADLNAVPEDIRTAVRDDGGGHANHSLFWTLLSPNGGGEPTGELAEEIKSTFGSFDQFKEKFAAAAAGRFGSGWAWLVVDDGKLEITSTPNQDSPLSEGKTPVLGLDVWEHAYYLNYQNRRPDYISAFWNVVNWDEVARLYSEAK
modifications: shellac coating; dextrin mixture
corneal fluorescent staining score as compared with the 0.05% CsA group ([1]; 5 mg/kg oral): more significant decrease | corneal fluorescent staining score ([1]; before drug administration, 2.5 mg/kg oral group): 9.2±1.7 points | corneal fluorescent staining score ([1]; before drug administration, 5 mg/kg oral group): 9.4±1.7 points | corneal fluorescent staining score ([1]; before drug administration, 10 mg/kg oral group): 9.3±1.7 points | corneal fluorescent staining score ([1]; day 5 of administration, 2.5 mg/kg oral once a day): 10.4±1.9 points | corneal fluorescent staining score ([1]; day 5 of administration, 5 mg/kg oral once a day): 9.9±2.5 points | corneal fluorescent staining score ([1]; day 5 of administration, 10 mg/kg oral once a day): 10.1±2.9 points | corneal fluorescent staining score ([1]; day 10 of administration, 2.5 mg/kg oral once a day): 8.8±2 points | corneal fluorescent staining score ([1]; day 10 of administration, 5 mg/kg oral once a day): 7.8±1.9 points | corneal fluorescent staining score ([1]; day 10 of administration, 10 mg/kg oral once a day): 8.2±1.9 points | corneal fluorescent staining score as compared with the EDE and vehicle groups ([1]; days 5 and 10, 0.05% CsA eye drop, SodA2 2.5, 5 and 10 mg/kg oral): significant decrease | number of goblet cells in the conjunctiva ([2]; 2.5 mg/kg oral once a day): 27.9±6.9 cells/100 μm | number of goblet cells as compared with the 0.05% CsA group ([2]; 5 mg/kg oral): more significant increase | number of goblet cells in the conjunctiva ([2]; 5 mg/kg oral once a day): 35.8±10.2 cells/100 μm | number of goblet cells in the conjunctiva ([2]; 10 mg/kg oral once a day): 32.2±3.9 cells/100 μm | number of goblet cells in the conjunctiva, change in treatment groups ([2]; all treatment groups: 0.05% CsA, SodA2 2.5, 5 and 10 mg/kg oral): significant increase | IFN-γ [3, 7]: 21.27 ± 17.49 pg/mL | IL-1β [3, 7]: 21.5 ± 9.26 pg/mL | TNF-α [3, 7]: 22.6 ± 7.72 pg/mL | IFN-γ [3, 8]: 18.28 ± 11.75 pg/mL | IL-1β [3, 8]: 19.0 ± 7.17 pg/mL | TNF-α [3, 8]: 18.8 ± 11.6 pg/mL | IFN-γ [3, 9]: 15.53 ± 11.43 pg/mL | IL-1β [3, 9]: 16.3 ± 9.12 pg/mL | TNF-α [3, 9]: 22.5 ± 11.4 pg/mL | concentrations of IFN-γ, IL-1β, and TNF-α as compared with the EDE and vehicle groups [3, 10]: tendency of decreased concentrations | IFN-γ [3, 11]: 10.77 ± 8.30 pg/mL | IL-1β [3, 11]: 15.45 ± 8.93 pg/mL | TNF-α [3, 11]: 22.6 ± 7.72 pg/mL | IFN-γ [3, 12]: 9.80 ± 6.11 pg/mL | IL-1β [3, 12]: 13.17 ± 2.26 pg/mL | TNF-α [3, 12]: 18.8 ± 11.6 pg/mL | IFN-γ [3, 13]: 7.89 ± 7.90 pg/mL | IL-1β [3, 13]: 8.69 ± 4.18 pg/mL | TNF-α [3, 13]: 22.5 ± 11.4 pg/mL | inflammatory cytokines as compared with CsA ([3]; oral, all doses): tended to decrease inflammatory cytokines more than CsA | proportion of CD4+IFN-γ+T cells [4, 7]: 21.00±0.63% | proportion of CD4+IFN-γ+T cells [4, 8]: 22.87±2.47% | proportion of CD4+IFN-γ+T cells [4, 9]: 25.83±0.27% | proportion of CD4+IFN-γ+T cells as compared with the EDE and vehicle groups [4, 10]: significant decrease | proportion of CD4+IFN-γ+T cells as compared with the 0.05% CsA group ([4]; cornea, 2.5 mg/kg oral): significantly lower | proportion of CD4+IFN-γ+T cells [4, 11]: 21.18±0.15% | proportion of CD4+IFN-γ+T cells [4, 12]: 23.87±0.17% | proportion of CD4+IFN-γ+T cells [4, 13]: 30.24±1.33% | MDA efficacy as compared with 0.05% CsA ([5]; conjunctiva): superior | MDA efficacy as compared with 0.05% CsA ([5]; cornea, lacrimal gland): similar | MDA concentration, Conjunctiva [5, 7]: 21.5 ± 9.26 pmol/mL | MDA concentration, Conjunctiva [5, 8]: 19.0 ± 7.17 pmol/mL | MDA concentration, Conjunctiva [5, 9]: 16.3 ± 9.12 pmol/mL | MDA concentration as compared with the EDE and vehicle groups ([5]; cornea, conjunctiva and lacrimal gland, CsA and oral SodA2 groups): decreased | MDA concentration, Cornea [5, 11]: 22.7 ± 13.8 pmol/mL | MDA concentration, Cornea [5, 12]: 20.2 ± 14.0 pmol/mL | MDA concentration, Cornea [5, 13]: 18.5 ± 10.6 pmol/mL | MDA concentration, Lacrimal gland ([5]; lacrimal gland, 2.5 mg/kg oral once a day): 22.6 ± 7.72 pmol/mL | MDA concentration, Lacrimal gland ([5]; lacrimal gland, 5 mg/kg oral once a day): 18.8 ± 11.6 pmol/mL | MDA concentration, Lacrimal gland ([5]; lacrimal gland, 10 mg/kg oral once a day): 22.5 ± 11.4 pmol/mL | number of necrotic cells in the cornea ([6]; 2.5 mg/kg oral once a day): 6.2±1.1 cells/100 μm | number of necrotic cells in the cornea ([6]; 5 mg/kg oral once a day): 4.0±1.3 cells/100 μm | number of necrotic cells in the cornea ([6]; 10 mg/kg oral once a day): 4.6±1.3 cells/100 μm | number of dead cells in the cornea as compared with the EDE and vehicle groups ([6]; groups treated with CsA and oral SodA2): significantly decreased
